The source of these data is patent US20250027068.

B1: PRT-373 (protein)
chain: MSQTEDSESLQRLRDIEDFQAEKEKQNVVYTKWLDGVDVKDHDFRKIVDGNSAYYATPLLNGRGWYDINKDFNRDNDKCAAAVAANMFHYWLDRNRDNVDRFLRQNPEKHGIIELPDGQLKLSDFLNTYESDDGYRDKSKLFDFISENFNGPVWTDKLLDNYINGYAYNSKYGRTIEDSTKNTSKINFFKEVFNEKILTNNHSIRNQNEFSVLLIEALYTGKAIGLSYGPAGLRHGLGHIISVWGADLDADGNVVAIYVTDSDDKKLTIGDERVGLKRYKISTDDEGRLRLTAYEETHNTGGQVRGLWTLDTGKQAWADYFDKTEQTGTDQAEQ
B2: PRT-431 (protein)
chain: MSQTEDSESLQRLRDIEDFQAEKKKQNVVYTKWLDGVDVKDHDFRKIVDGNIAYYATPLLNGRGFYDINKDFNRDSDKCAAAVAANMFHYWLDRNRDNVDRFLRQNPEKHGIIELPDGQLKLSDFLNTYESDDGYRDKSKLFDFISENFNGPVWTDKLLDNYINGYAYNYKYGRTIEDPTKNTSKINFFKEVFNEKILTNNHSIRNQNEFSVLLSEALYTGKAIGLSYGPAGLRHSLGHIISVWGADLDADGNVVAIYVTDSDDKKLTIGDERVGLKRYKISTDDEGRLRLTAYEETHNTGGQIRGLWTLDTGKQAWADYFDKTEQTGTDQAEQ
B3: PRT-432 (protein)
chain: MSQTEDSESLQRLRDIEDFQAEKKKQNVVYTKWLDGVDVKDHDFRKIVDGNIAYYATPLLNGRGFYDINKDFNRDSDKCAAAVAANMFHYWLDRNRDNVDRFLRQNPEKHGIIELPDGQLKLSDFLNTYESDDGYRDKSKLFDFISNNFNGPVWTDKLLDNYINGYAYNSKYGRTIEDPTKNTSKINFFKEVFNEKILTNNHSIRNQNEFSVLLSEALYTGKAIGLSYGPAGLRHSLGHIISVWGADLDADGNVVAIYVTDSDDKKLTIGDERVGLKRYKISTDDEGRLRLTAYEETHNTGGQIRGLWTLDTGKQAWADYFDKTEQTGTDQAEQ
B4: PRT-430 (protein)
chain: MSQTEDSESLQRLRDIEDFQAEKKKQNVVYTKWLDGVDVKDHDFRKIVDGNSAYYATPLLNGRGFYDINKDFNRDSDKCAAAVAANMFHYWLDRNRDNVDRFLRQNPEKHGIIELPDGQLKLSDFLNTYESDDGYRDKSKLFDFISNNFNGPVWTDKLLDNYINGYAYNYKYGRTIEDPTKNTSKINFFKEVFNEKILTNNHSIRNQNEFSVLLSEALYTGKAIGLSYGPAGLRHSLGHIISVWGADLDADGNVVAIYVTDSDDKKLTIGDERVGLKRYKISTDDEGRLRLTAYEETHNTGGQIRGLWTLDTGKQAWADYFDKTEQTGTDQAEQ
B5: PRT-564 (protein)
chain: MANQEIRYSEATPSHITSVWTKGVTPPTQFIQNEDVLHAPYIANQGWYDITKTFNGKDDLLCGAATAGNMLHWWFDQNKTQIENYLKKHPEKQKINFNGEQMFDVKEAIDTKDSQTDSALFSYFKDKAFPYLSTKHLGVFPDHVIDMFINGYRLSLTNHGPTPVKRQTKDPRGGIFDAVFTRGDQSKLLTSRHDFKEKTLNEISQLIKQELTEGKALGLSHTYANVRINHVINLWGADFNAEGNLEAIYVTDSDSNASIGMKKYYVGVNAAGKVAISAKEIEGDNIGAQVLGLFTLSTGQDIWQQTNLEHHHHHH
B6: PRT-641 (protein)
chain: MQITSVWTKGVTPLTPEQFRYNNEDVIHAPYLAHQGWYDITKTMNGKDDLLCGAATAGNMLHWWFDQNKTEIEAYLSKHPEKQKIIFNNQELFDLKAAIDTKDSQTNSQLFNYFRDKAFPNLSARQRGVMPDLVLDMFINGYYLNVFKTQSTDVNRPYQDKDKRGGIFDAVFTRGDQTTLLTARHDLKNKGLNDISTIIKQELTEGRALALSHTYANVSISHVINLWGADFNAEGNLEAIYVTDSDARENIGMKKYFVGINAHGHVAISAKKIEGENIGAQVLGLFTLSSGKDIWQKLSLEHHHHHH
B7: PRT-660 (protein)
chain: MQITSVWTKGVTPLTPEQFRYNNEDVIHAPYLAHQGWYDITKAFDGKDNLLCGAATAGNMLHWWFDQNKTEIEAYLSKHPEKQKIIFNNQELFDLRKAINTKDDQKESALFNYFRKKAFPNLSARQLGVMPDLVLDMFINGYYLNVFKTQSTDVNRPYQDKDKRGGIFDAVFTRGDQTTLLTARHDLKNKGLNDISTIIKQELTEGRALALSHTYANVSISHVINLWGADFNAEGNLEAIYVTDSDANASIGMKKYFVGINAHGHVAISAKKIEGENIGAQVLGLFTLSSGKDIWQKLSLEHHHHHH
B8: PRT-694 (protein)
chain: MTITSVWTKGVTPPTPEDFRYNNEDVLHAPYVANQGWYDITKTFDGKDNLLCGAATAGNMLHWWFDQNKEEIERYLKKYPEKQKIIFNNQELFDVRAAINTKDSQTNSKLFNYFRDKAFPNLSARQLGVMPDLVLDMFINGYYLNLGKTQSTDVNRPYQDKDKRGGIFDAVFNRGDQTTLLTARHDLKNKGLNEISDLIKQELSSGKALALSHTYANVRINHVINLWGADFDAEGNLIAIYVTDSDANSNIGMKKYKVGVNANGKVAISAKKIEGDNIGAQVLGLFTLSTGQDIWQKLSLEHHHHHH
B9: PRT-684 (protein)
chain: MQITSVWTKGVTPLTPEQFTNNNEDVIHAPYLANQGWYDITKTFNGKDNLLCGAATAGNMLHWWFDQNKEEIEAYLKKHPEKQKIIFNNQELFDLKKAIDTKDSQTNSALFNYFRDKAFPNLSARQLGVMPDLVLDMFINGYYLNVFKTQSTDVNRPYQTKDKRGGIFDAVFTRGDQTTLLTARHDLKNKGLNEISDIIKQELTEGKALALSHTYANVSISHVINLWGADFNAEGNLIAIYVTDSDANASIGMKKYFVGVNSHGKVAISAKKIEGENIGAQVLGLFTLSSGQDIWQKLSLEHHHHHH
B10: PRT-690 (protein)
chain: MQITSVWTKGVTPPTPEQFRYNNEDVIHAPYLANQGWYDITKTFNGKDNLLCGAATAGNMLHWWFDQNKTEIEAYLSKYPEKQKIIFNNQELFDLRAAINTKDSQTNSQLFNYFRDKAFPNLSARQLGVMPDLVLDMFINGYYLNVFKTQSTDVNRPYQDKDKRGGIFDAVFNRGDQTTLLTARHDLKNKTLNDISTLIKQELSSGKALALSHTYANVSISHVINLWGADFNAEGNLEAIYVTDSDANSNIGMKKYKVGVNAHGKVAISAKKIEGENIGAQVLGLFTLSSGKDIWQKLSLEHHHHHH
B11: PRT-377 (protein)
chain: MVTSVWTKGVTPPTNFTYGEDVLHAPYVANQGWYDITKTFNGKDDLLCGAATAGNMLHWWFDQNKEQIENYLKKHPEKQKINFNGEQMFDVKEAIDTKDSQLDSKLFEYFLEKAFPYLSTKHLGVFPDHVIDMFINGYRLSLTNHGPTPVKRGSKDPRGGIFDAVFTRGDQSKLLTNRHDFKEKTLKEISDLIKQELTEGKALGISHTYANVRINHVINLWGADFDAEGNLEAIYVTDSDSNASIGMKKYFVGVNSNGKVAISAKEIEEDNIGAQVLGLFTLSTGQDIWNQTN
B12: PRT-605 (protein)
chain: MQITSVWTKGVTPLTPEQFRYNNEDVIHAPYLAHQGWYDITKAFDGKDNLLCGAATAGNMLHWWFEQNKTEIEAYLSKYGDTQKIIFNNQELFDLKAAIDTKDSQTNSQLFNYFRDKAFPNLSARQLGVMPDLVLDMFINGYYLNVFKTQSTDVNRPYQDKDKRGGIFDAVFTRGDQTTLLTARHDLKNKGLNDISTIIKQELTEGRALALSHTYANVSISHVINLWGADFNAEGNLEAIYVTDSDANASIGMKKYFVGINAHGHVAISAKKIEGENIGAQVLGLFTLSSGKEIWQKLSLEHHHHHH
B13: PRT-603 (protein)
chain: MQITTVWTKGVTPLTPEQFRYNNEDVIHAPYLAHQGWYDITKAFDGKDNLLCGAATAGNMLHWWFDQNKTEIEAYLSKHPEKQKIIFNNQELFDLKAAIDTKDSQTNSQLFNYFRDKAFPNLSARQLGVMPDLVLDMFINGYYLNVFKTQSTDVNRPYQDKDKRGGIFDAVFTRGDQTTLLTARHDLKNGGLNDISTIIKQELQSGRALALSHTYANVSISHVINLWGADFNAEGNLEAIYVTDSDANASIGMKKYFVGINAHGHVAISAKKIEGENIGAQVLGLFTLSSGKDIWQKLSLEHHHHHH

For this series, the target named is pooled human IgG (human IgG1, 2, 3 and 4).
The protein B1 displayed an Enzyme Activity Endpoint Assay (purified): Fab′2 of 392 ng/µL, an Enzyme Activity Endpoint Assay (purified): Fc of 295 ng/µL, an Enzyme Activity Endpoint Assay (purified): IgG of 38 ng/µL and an Enzyme Activity Endpoint Assay (purified): scIgG of 281 ng/µL.
B2 came in with an Enzyme Activity Endpoint Assay (purified): Fab′2 of 521 ng/µL, an Enzyme Activity Endpoint Assay (purified): Fc of 310 ng/µL, an Enzyme Activity Endpoint Assay (purified): IgG of 0 ng/µL and an Enzyme Activity Endpoint Assay (purified): scIgG of 230 ng/µL.
For the protein B3, the Enzyme Activity Endpoint Assay (purified): Fab′2 is 462 ng/µL, the Enzyme Activity Endpoint Assay (purified): Fc stood at 305 ng/µL, the Enzyme Activity Endpoint Assay (purified): IgG is 0 ng/µL and the Enzyme Activity Endpoint Assay (purified): scIgG stood at 385 ng/µL.
In turn, B4 returned an Enzyme Activity Endpoint Assay (purified): Fab′2 of 492 ng/µL, an Enzyme Activity Endpoint Assay (purified): Fc of 330 ng/µL, an Enzyme Activity Endpoint Assay (purified): IgG of 0 ng/µL and an Enzyme Activity Endpoint Assay (purified): scIgG of 324 ng/µL.
For B5 the same measures were 651 ng/µL, 351 ng/µL, 0 ng/µL and 0 ng/µL.
Consider B6, for which the Enzyme Activity Endpoint Assay (purified): Fab′2 turned out to be 975 ng/µL, the Enzyme Activity Endpoint Assay (purified): Fc stood at 336 ng/µL, the Enzyme Activity Endpoint Assay (purified): IgG came to 0 ng/µL and the Enzyme Activity Endpoint Assay (purified): scIgG was found to be 0 ng/µL.
B7 came in with an Enzyme Activity Endpoint Assay (purified): Fab′2 of 161 ng/µL, an Enzyme Activity Endpoint Assay (purified): Fc of 320 ng/µL, an Enzyme Activity Endpoint Assay (purified): IgG of 105 ng/µL and an Enzyme Activity Endpoint Assay (purified): scIgG of 668 ng/µL.
On to B8, for which the Enzyme Activity Endpoint Assay (purified): Fab′2 worked out at 541 ng/µL, the Enzyme Activity Endpoint Assay (purified): Fc turned out to be 0 ng/µL, the Enzyme Activity Endpoint Assay (purified): IgG was 1030 ng/µL and the Enzyme Activity Endpoint Assay (purified): scIgG was found to be 15 ng/µL.
On to B9, for which the Enzyme Activity Endpoint Assay (purified): Fab′2 stood at 1060 ng/µL, the Enzyme Activity Endpoint Assay (purified): Fc amounted to 542 ng/µL, the Enzyme Activity Endpoint Assay (purified): IgG came to 0 ng/µL and the Enzyme Activity Endpoint Assay (purified): scIgG came out at 0 ng/µL.
Consider B10, for which the Enzyme Activity Endpoint Assay (purified): Fab′2 amounted to 966 ng/µL, the Enzyme Activity Endpoint Assay (purified): Fc turned out to be 482 ng/µL, the Enzyme Activity Endpoint Assay (purified): IgG was 0 ng/µL and the Enzyme Activity Endpoint Assay (purified): scIgG is 0 ng/µL.
B11 showed an Enzyme Activity Endpoint Assay (purified): Fab′2 of 572 ng/µL, an Enzyme Activity Endpoint Assay (purified): Fc of 348 ng/µL, an Enzyme Activity Endpoint Assay (purified): IgG of 0 ng/µL and an Enzyme Activity Endpoint Assay (purified): scIgG of 242 ng/µL.
For the protein B12, the Enzyme Activity Endpoint Assay (purified): Fab′2 worked out at 617 ng/µL, the Enzyme Activity Endpoint Assay (purified): Fc was 357 ng/µL, the Enzyme Activity Endpoint Assay (purified): IgG turned out to be 100 ng/µL and the Enzyme Activity Endpoint Assay (purified): scIgG was found to be 157 ng/µL.
For the protein B13, the Enzyme Activity Endpoint Assay (purified): Fab′2 was 965 ng/µL, the Enzyme Activity Endpoint Assay (purified): Fc stood at 486 ng/µL, the Enzyme Activity Endpoint Assay (purified): IgG is 0 ng/µL and the Enzyme Activity Endpoint Assay (purified): scIgG is 0 ng/µL.
